{
  "source": "patent US20250369013A1",
  "about": "(ENSOMA, published 2025)",
  "binders": {"B1": {"name": "Ad11 (fiber knob) (other)", "chain": "LWTGVNPTEANCQIMNSSESNDCKLILTLVKTGALVTAFVYVIGVSNNFNMLTTHRNINFTAELFFDSTGNLLTRLSSLKTPLNHKSGQNMATGAITNAKGFMPSTTAYPFNDNSREKENYIYGTCYYTASDRTAFPIDISVMLNRRAINDETSYCIRITWSWNTGDAPEVQTSATTLVTSPFTFYYIREDD", "notes": "also called B7"}, "B2": {"name": "Mutated Ad35 Knob A8: Ile192Val Ile256Val (other)", "chain": "LWTGINPPPNCQIVENTNTNDGKLTLVLVKNGGLVNGYVSLVGVSDTVNQMFTQKTANVQLRLYFDSSGNLLTEESDLKIPLKNKSSTATSETVASSKAFMPSTTAYPFNTTTRDSENYIHGVCYYMTSYDRSLFPLNISIMLNSRMISSNVAYAIQFEWNLNASESPESNIATLTTSPFFFSYITEDDN"}, "B3": {"name": "wtAd35(207Asp) knob (other)", "chain": "B2 chain with V59I, E74D, V123I", "notes": "also called B2"}},
  "note": "Where a chain is given by its changes, count along the chain named.",
  "data": [
    {"target": "T1, CD46 (UniProt P15529 35-343)", "T1 construct": "The form used in the Kd measurement is not described", "T1 sequence": "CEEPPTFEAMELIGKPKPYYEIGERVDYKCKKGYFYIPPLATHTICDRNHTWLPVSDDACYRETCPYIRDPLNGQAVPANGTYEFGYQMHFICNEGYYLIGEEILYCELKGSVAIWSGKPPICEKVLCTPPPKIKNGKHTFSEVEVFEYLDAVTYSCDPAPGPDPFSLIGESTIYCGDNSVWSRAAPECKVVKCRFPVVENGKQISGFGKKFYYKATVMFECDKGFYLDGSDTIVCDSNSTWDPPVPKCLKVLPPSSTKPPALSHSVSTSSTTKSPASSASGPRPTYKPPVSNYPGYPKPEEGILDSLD", "test": "Kd of knob for CD46; method not stated", "units": {"Kd": "nM"}, "values": [
      {"binder": "B1", "Kd": 11.2},
      {"binder": "B2", "Kd": 13.7},
      {"binder": "B3", "Kd": 15}
    ]}
  ]
}
